# According to patent publication US11820827B2, “Methods of treating myelodysplastic syndrome and acute myeloid leukemia with nonfucosylated anti-CD70 antibodies” (Seagen Inc., priority 2019, dated 2023):
# B1: SEA-CD70: humanized, nonfucosylated monoclonal IgG1 antibody targeting CD70 (nonfucosylated h1F6) (antibody, chains of the INN, looked up, V domains shown)
# VH: QVQLVQSGAEVKKPGASVKVSCKASGYTFTNYGMNWVRQAPGQGLKWMGWINTYTGEPTYADAFKGRVTMTRDTSISTAYMELSRLRSDDTAVYYCARDYGDYGMDYWGQGTTVTVSS
# VL: DIVMTQSPDSLAVSLGERATINCRASKSVSTSGYSFMHWYQQKPGQPPKLLIYLASNLESGVPDRFSGSGSGTDFTLTISSLQAEDVAVYYCQHSREVPWTFGQGTKVEIK
# modifications: nonfucosylated
# Assays:
# [1] = test system: MOLM-13 CD70+ target cells; assay: ADCP with monocyte-derived macrophages, MOLM-13; format: cell-based, human; settings: flow cytometry, antibody dose-dependent
# Method: (§1) Phagocytosis of fluorescently labeled target cells was determined by flow cytometry. Phagocytosis was measured for the appearance of double-labeled coincident events (fluorescent target cells) and anti-CD11c positivity to identify monocyte/macrophages.
# (§2) The following protocol was used to assess […] activity on AML cell lines: • 1. Target cells were labeled using the PKH26 Red Fluorescent Cell Linker Mini Kit (Sigma Aldrich) and following the manufacturer's instructions. • 2. Cells (4000 cells/well) were incubated with the indicated test articles for 30 minutes, washed and resuspended in RPMI plus 10% ultra-low IgG FBS. • 3. PBMC-derived macrophages (100,000 cells/well), generated by incubating PBMC-derived monocytes with 500 U/mL (50 ng/mL) GM-CSF for 10-12 days, were added to the target cells and incubated at 37° C. for 2 hours. • 4. Plates were centrifuged and cells resuspended in 100 μl of APC-CD11 antibody (macrophage marker) and incubated on ice for 30 minutes. • 5. Cells were washed, resuspended in PBS and analyzed by flow cytometry to determine the percentage of phagocytosis
# [2] = test system: NOMO-1 CD70+ AML cell line; assay: ADCC assay with NK effector cells, NOMO-1; format: cell-based, human; settings: effector-to-target ratio 10:1, 4 h
# Method: (§3) ADCC activity was evaluated using two CD70+AML cell lines as an ADCC target (FIGS. 3A and 3B). The AML cell lines, MOLM-13 (FIG. 3A) and NOMO-1 (FIG. 3B), were labeled and mixed with titrations of test antibodies or isotype control. Effector cells were isolated from cryopreserved normal donor PBMC using the EasySep Human NK Cell Enrichment Kit (Stem Cell Technologies). Effector cells were added at an effector-to-target cell ratio of 10:1 with […]. After a 4-h incubation, the percent specific cell lysis was calculated.
# (§4) AML cell lines were grown in appropriate growth medium while incubating at 37° C. in 5% CO2. Suspended cells were counted using ViCell XR cell counter. The required volume of cells was mixed with fresh growth medium and plated at seeding densities of 0.5 M/mL.
# (§5) The following protocol was used to assess ADCC activity: • 1. Two vials of huPBMCs were thawed in the 37° C. waterbath and resuspended in 1% FBS-RPMI media. Cells were spun down and then NK cells were isolated using the EasySep human NK cell enrichment kit following the manufacturer's protocol. • 2. […] Absorbance per well was measured using the SpectraMax 190 plate reader at 490 nm and the acquired values were converted to text file and exported to Excel and into GraphPad Prism for further data analysis. • 9. […]
# [3] = test system: MOLM-13 CD70+ AML cell line; assay: ADCC assay with NK effector cells, MOLM-13; format: cell-based, human; settings: effector-to-target ratio 10:1, 4 h
# Method: as §3, §4, §5
# [4] = test system: MOLM-13 CD70+ AML cell line; assay: CDC with normal human serum, MOLM-13; format: cell-based; settings: normal human serum not heat inactivated
# Method: AML cell lines positive for CD70 were fluorescently labeled and treated with increasing concentrations of CD70 directed antibodies. Cells were then exposed to human compliment and lysis determined as release of fluorescent dye.
# The following protocol was used to assess CDC activity on AML cell lines: • 1. Cells were incubated with […] anti-CRP monoclonal antibodies mix (anti-hCD46, anti-hCD55, anti-hCD59) for 30 minutes on ice. • 2. Cells were washed and plated (200,000 cells/well) in media containing non-heat-inactivated serum, Sytox Green (Life technology), and antibodies, which were added at the indicated final concentration, for 2 hours at 37° C. • 3. Cell dead was quantified by detecting Sitox Green fluorescent signal on an Envison plate reader (Perkin Elmer) and normalized over positive control (1% Triton X-100 treated cells).
# [5] = test system: NOMO-1 CD70+ target cells; assay: ADCP with monocyte-derived macrophages, NOMO-1; format: cell-based, human; settings: flow cytometry, antibody dose-dependent
# Method: as §1, §2
# hFcγRIIIa V158 = biological target: T1, hFcγRIIIa V158 (Homo sapiens, UniProt P08637, F176V); assay: BLI binding kinetics to high affinity FcγRIIIa (158V) receptor variant; settings: versus SGN-70
# T1 construct: made in house
# [6] = test system: T regulatory cells (Treg) in PBMCs; assay: Treg depletion in PBMCs; format: cell-based, human; settings: 24 hours
# Method: At the end of the experiment cells were stained with Zombie Aqua Viability Dye and total viable Treg naïve and memory CD4 and CD8 T cell numbers were assessed. […] Fucosylated (WT Clone 13 IgG1) and nonfucosylated (SEA Clone 13 IgG1) antibodies targeting TIGIT were used as positive controls (FIG. 4E-4H).
# MV4-11 AML xenograft = assay: Tumor growth in the MV4-11 AML xenograft model, SEA-CD70, azacitidine, venetoclax (Example 11); format: in vivo, SCID mice; settings: antibody 10 mg/kg Q4dx5, azacitidine 2 mg/kg Q1dx5 3 cycles, venetoclax 25 mg/kg oral Q1dx21; comparisons at day 39
# Description: Tumor growth was reported as a volume and calculated as an average across animals within each treatment group (FIG. 11A). Immunocompromised SCID mice were implanted with 5×10e6 MV4-11 cells subcutaneously in the flank on day 0. When mean tumor size of 50 mm^3 (measured by using the formula: Volume (mm^3)=0.5*Length*Width^2, where the length is the longer dimension) was reached, mice were randomized into treatment groups of 10 mice per group. Stock concentrations of antibody and chemotherapy were diluted to the appropriate concentration and injected into animals at 10 μl/g of body weight. Tumor length and width, and animal weight were measured two times weekly throughout the study and tumor volume was calculated using the formula above. Animals were followed until tumor volume measured ˜1000 mm^3, at which time the animals were euthanized. Animals were dosed on various schedules based on treatment received; animals receiving antibody were treated with 10 mg/kg of antibody (Q4dx5), azacitidine-treated animals were dosed daily (2 mg/kg) for five consecutive days (Q1dx5) each week, for a total of 3 cycles (3 weeks); venetoclax was given at 25 mg/kg every day by oral gavage for 21 days consecutively (Q1dx21). Animal receiving combination of treatments received each treatment at the same dose and schedule as the single treatments.
# T1 sequence (P08637 17-208 F176V): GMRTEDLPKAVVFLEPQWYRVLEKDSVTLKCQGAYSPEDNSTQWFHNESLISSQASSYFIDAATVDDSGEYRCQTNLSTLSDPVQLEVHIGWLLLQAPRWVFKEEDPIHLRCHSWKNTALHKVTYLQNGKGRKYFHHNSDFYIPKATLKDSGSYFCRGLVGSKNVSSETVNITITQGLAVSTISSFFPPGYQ
molecule,measurement,setting,value
B1,phagocytosis of antibody-coated target cells by macrophages,[1],readily phagocytosed target cells
same,lysis of target cells in ADCC assay,[2],induced lysis of two CD70 positive AML cell lines in a dose-dependent fashion
same,lysis of target cells in ADCC assay,[3],induced lysis of two CD70 positive AML cell lines in a dose-dependent fashion
same,cell lysis by complement fixation,[4],"lysed in an antibody-specific, dose-dependent manner"
same,phagocytosis of antibody-coated target cells by macrophages,[5],readily phagocytosed target cells
same,increase in binding affinity for the FcγRIIIa (158V) receptor,hFcγRIIIa V158,8 fold
same,T regulatory cell depletion,[6]; donor homozygous for high affinity FcγRIIIa (V/V 158),did not induce Treg cell depletion
same,T regulatory cell depletion,[6]; donor homozygous for low affinity FcγRIIIa (F/F 158),Neither CD70 targeting antibody induced T regulatory cell depletion
same,effect on tumor growth,MV4-11 AML xenograft,delay tumor growth
